According to patent US20080299072A1:

Assays:
CCR5, P51681 [1] = assay: competition SPA, displacement of 125I-MIP-1α from CCR5 CHO membranes; conditions: remark: other sources report otherwise
CCR5, P51681 [2] = assay: competition SPA, displacement of 125I-MIP-1α from CCR5 CHO membranes (FIG. 2); conditions: remark: other sources report otherwise

Sequence of CCR5, P51681 (P51681 whole entry): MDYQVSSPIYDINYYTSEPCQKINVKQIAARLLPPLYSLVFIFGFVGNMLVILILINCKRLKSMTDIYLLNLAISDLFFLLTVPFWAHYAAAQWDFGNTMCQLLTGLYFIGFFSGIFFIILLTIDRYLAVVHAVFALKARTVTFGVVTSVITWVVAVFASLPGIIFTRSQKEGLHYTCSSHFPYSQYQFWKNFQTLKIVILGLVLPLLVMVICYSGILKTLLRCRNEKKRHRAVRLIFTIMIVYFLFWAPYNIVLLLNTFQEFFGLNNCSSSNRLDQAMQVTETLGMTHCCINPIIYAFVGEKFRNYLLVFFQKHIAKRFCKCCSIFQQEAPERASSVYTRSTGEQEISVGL

Row | IC50 (CCR5, P51681 [1]) [nM] | IC50 (CCR5, P51681 [2]) [nM] | Binder
1 | 1.6 | 1.3 | Mature wildtype (wt) human RANTES, P13501 24-91 (ligand) SPYSSDTTPCCFAYIARPLPRAHIKEYFYTSGKCSNPAVVFVTRKNRQVCANPEKKWVREYINSLEMS
2 | 10.6 | 3.1 | PEG-2 kDa-RANTES, P13501 24-91 (ligand) {mPEG‑ButyrALD 2 kDa}-SPYSSDTTPCCFAYIARPLPRAHIKEYFYTSGKCSNPAVVFVTRKNRQVCANPEKKWVREYINSLEMS
3 | 2.8 | 2.2 | PEG-5 kDa-RANTES, P13501 24-91 (ligand) {mPEG‑ButyrALD 5 kDa}-SPYSSDTTPCCFAYIARPLPRAHIKEYFYTSGKCSNPAVVFVTRKNRQVCANPEKKWVREYINSLEMS
